9 molecules from doi:10.1101/2025.05.07.652675 (bioRxiv, 2025) can be followed below.

B1: 6×His-ZapC (natural protein)
chain: not shown
B2: FtsZ (wild type, untagged) (natural protein)
chain: MFEPMELTNDAVIKVIGVGGGGGNAVEHMVRERIEGVEFFAVNTDAQALRKTAVGQTIQIGSGITKGLGAGANPEVGRNAADEDRDALRAALEGADMVFIAAGMGGGTGTGAAPVVAEVAKDLGILTVAVVTKPFNFEGKKRMAFAEQGITELSKHVDSLITIPNDKLLKVLGRGISLLDAFGAANDVLKGAVQGIAELITRPGLMNVDFADVRTVMSEMGYAMMGSGVASGEDRAEEAAEMAISSPLLEDIDLSGARGVLVNITAGFDLRLDEFETVGNTIRAFASDNATVVIGTSLDPDMNDELRVTVVATGIGMDKRPEITLVTNKQVQQPVMDRYQQHGMAPLTQEQKPVAKVVNDNAPQTAKEPDYLDIPAFLRKQAD
B3: FtsZ^A376T (untagged) (natural protein)
chain: MFEPMELTNDAVIKVIGVGGGGGNAVEHMVRERIEGVEFFAVNTDAQALRKTAVGQTIQIGSGITKGLGAGANPEVGRNAADEDRDALRAALEGADMVFIAAGMGGGTGTGAAPVVAEVAKDLGILTVAVVTKPFNFEGKKRMAFAEQGITELSKHVDSLITIPNDKLLKVLGRGISLLDAFGAANDVLKGAVQGIAELITRPGLMNVDFADVRTVMSEMGYAMMGSGVASGEDRAEEAAEMAISSPLLEDIDLSGARGVLVNITAGFDLRLDEFETVGNTIRAFASDNATVVIGTSLDPDMNDELRVTVVATGIGMDKRPEITLVTNKQVQQPVMDRYQQHGMAPLTQEQKPVAKVVNDNAPQTAKEPDYLDIPTFLRKQAD
B4: FtsZ^F285S (untagged) (natural protein)
chain: MFEPMELTNDAVIKVIGVGGGGGNAVEHMVRERIEGVEFFAVNTDAQALRKTAVGQTIQIGSGITKGLGAGANPEVGRNAADEDRDALRAALEGADMVFIAAGMGGGTGTGAAPVVAEVAKDLGILTVAVVTKPFNFEGKKRMAFAEQGITELSKHVDSLITIPNDKLLKVLGRGISLLDAFGAANDVLKGAVQGIAELITRPGLMNVDFADVRTVMSEMGYAMMGSGVASGEDRAEEAAEMAISSPLLEDIDLSGARGVLVNITAGFDLRLDEFETVGNTIRASASDNATVVIGTSLDPDMNDELRVTVVATGIGMDKRPEITLVTNKQVQQPVMDRYQQHGMAPLTQEQKPVAKVVNDNAPQTAKEPDYLDIPAFLRKQAD
B5: FtsZ^D360Y (untagged) (natural protein)
chain: MFEPMELTNDAVIKVIGVGGGGGNAVEHMVRERIEGVEFFAVNTDAQALRKTAVGQTIQIGSGITKGLGAGANPEVGRNAADEDRDALRAALEGADMVFIAAGMGGGTGTGAAPVVAEVAKDLGILTVAVVTKPFNFEGKKRMAFAEQGITELSKHVDSLITIPNDKLLKVLGRGISLLDAFGAANDVLKGAVQGIAELITRPGLMNVDFADVRTVMSEMGYAMMGSGVASGEDRAEEAAEMAISSPLLEDIDLSGARGVLVNITAGFDLRLDEFETVGNTIRAFASDNATVVIGTSLDPDMNDELRVTVVATGIGMDKRPEITLVTNKQVQQPVMDRYQQHGMAPLTQEQKPVAKVVNYNAPQTAKEPDYLDIPAFLRKQAD
B6: FtsZ^I323L (untagged) (natural protein)
chain: MFEPMELTNDAVIKVIGVGGGGGNAVEHMVRERIEGVEFFAVNTDAQALRKTAVGQTIQIGSGITKGLGAGANPEVGRNAADEDRDALRAALEGADMVFIAAGMGGGTGTGAAPVVAEVAKDLGILTVAVVTKPFNFEGKKRMAFAEQGITELSKHVDSLITIPNDKLLKVLGRGISLLDAFGAANDVLKGAVQGIAELITRPGLMNVDFADVRTVMSEMGYAMMGSGVASGEDRAEEAAEMAISSPLLEDIDLSGARGVLVNITAGFDLRLDEFETVGNTIRAFASDNATVVIGTSLDPDMNDELRVTVVATGIGMDKRPELTLVTNKQVQQPVMDRYQQHGMAPLTQEQKPVAKVVNDNAPQTAKEPDYLDIPAFLRKQAD
B7: ZapC (untagged) (natural protein)
chain: not shown

Data set [1] addresses B2. The data set can be described thus: BLI. Background: BLI is a label-free optical method that tracks binding on a fibre tip over time.
The target of the data set “FtsZ^F285S (untagged)” is B4. In words: BLI.
The data set “FtsZ^I323L (untagged)” concerns the target B6. The data set can be described thus: co-sedimentation.
The data set “FtsZ^D360Y (untagged)” addresses B5. The data set can be described thus: co-sedimentation.
The data set “FtsZ^A376T (untagged)” deals with B3. The data set can be described thus: co-sedimentation.
Data set [2] deals with the molecule itself. In words: sedimentation of polymers by ultracentrifugation.
Data set [3] has as its target 6×His-ZapC F30D K94D double mutant (E. coli, UniProt P75862 1-180, F30D | K94D). The data set can be described thus: BLI.
Data set [4] concerns the molecule itself. The data set can be described thus: negative stain electron microscopy.
For data set [5], the target named is T1, SUMO-FtsZ (6×His-SUMO fusion of full length FtsZ) (E. coli, UniProt P0A9A6 1-383).
T1 sequence: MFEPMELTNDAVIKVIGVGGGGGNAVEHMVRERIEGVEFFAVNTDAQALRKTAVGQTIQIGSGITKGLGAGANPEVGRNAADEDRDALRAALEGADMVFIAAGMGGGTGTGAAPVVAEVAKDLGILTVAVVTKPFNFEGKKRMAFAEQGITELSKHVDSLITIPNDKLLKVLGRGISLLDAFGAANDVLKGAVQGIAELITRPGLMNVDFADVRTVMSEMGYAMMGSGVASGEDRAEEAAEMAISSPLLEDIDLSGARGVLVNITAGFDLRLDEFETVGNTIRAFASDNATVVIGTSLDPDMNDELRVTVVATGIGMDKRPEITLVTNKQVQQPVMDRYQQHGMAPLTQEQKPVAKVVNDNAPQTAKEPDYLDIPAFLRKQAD
In words: BLI.

The target of the data set “6×His-ZapC” is B1. In words: BLI.
The data set “ZapC (untagged)” deals with B7. In words: BLI.

By Kd is commonly meant the constant that tells how readily two partners part at equilibrium. Low readings indicate tighter binding, high ones weaker binding. With B1, the Kd is 0.39 µM in data set [1] and 6.37 µM with FtsZ^F285S (untagged). For the same molecule, the binding result with FtsZ^I323L (untagged), in the data set with FtsZ^D360Y (untagged) and with FtsZ^A376T (untagged) was “binds” in each case. Regarding B2, the binding result in [2] is recorded as “binds”. For the same molecule, the “Kd relative to wild-type ZapC (times higher)” value in [3] is 12 times. Consider B3, for which the binding result in data set [4] is given as “binds”. For the molecule B4, the binding result in [2] is on record as “binds”. In the case of B5, in data set [4], the binding result is listed as “binds”. As to B6, the binding result in [4] is “binds”. For the molecule B7, the Kd in [5] was determined as 1.5 µM.

B8: FtsZ^1-370 (domain or fragment)
chain: MFEPMELTNDAVIKVIGVGGGGGNAVEHMVRERIEGVEFFAVNTDAQALRKTAVGQTIQIGSGITKGLGAGANPEVGRNAADEDRDALRAALEGADMVFIAAGMGGGTGTGAAPVVAEVAKDLGILTVAVVTKPFNFEGKKRMAFAEQGITELSKHVDSLITIPNDKLLKVLGRGISLLDAFGAANDVLKGAVQGIAELITRPGLMNVDFADVRTVMSEMGYAMMGSGVASGEDRAEEAAEMAISSPLLEDIDLSGARGVLVNITAGFDLRLDEFETVGNTIRAFASDNATVVIGTSLDPDMNDELRVTVVATGIGMDKRPEITLVTNKQVQQPVMDRYQQHGMAPLTQEQKPVAKVVNDNAPQTAKEPD
Consider B8, for which the “binding affinity relative to wild-type FtsZ (fold lower)” value in the data set with 6×His-ZapC was roughly 3 fold.

B9: SUMO-FtsZ^316-383 (domain or fragment)
chain: GMDKRPEITLVTNKQVQQPVMDRYQQHGMAPLTQEQKPVAKVVNDNAPQTAKEPDYLDIPAFLRKQAD
In the data set with ZapC (untagged), B9 registered a Kd of 10 µM.
